{"source": "paper PMC4932547", "about": "“Improved Aptamers for the Diagnosis and Potential Treatment of HER2-Positive Cancer”", "binders": {"B1": {"name": "HeA2_3 (ssDNA)", "DNA": "TCTAAAAGGATTCTTCCCAAGGGGATCCAATTCAAACAGC", "modifications": "5' hexyl-disulfide"}, "B2": {"name": "HeA2_1 (ssDNA)", "DNA": "ATTAAGAACCATCACTCTTCCAAATGGATATACGACTGGG", "modifications": "5' hexyl-disulfide"}}, "biological_target": "HER2 extracellular domain (UniProt P04626 23-652)", "assay": "SPRi; 5 mM Mg2+; negative aptamer spots subtracted; Selection buffer: 10 mM HEPES, 120 mM NaCl, 5 mM MgCl2, 5 mM KCl; pH not stated; SPRi temperature not stated (50 uL/min, 50 or 100 nM HER2, BSA-blocked chip); cell assays at 37 C", "details": "protein: commercial"}
{"binder": "B1", "values": [{"measurement": "Kd", "result": 6.2, "unit": "nM"}]}
{"binder": "B2", "values": [{"measurement": "Kd", "result": 28.9, "unit": "nM"}]}
